# Assay results: PMC9100969, “Structure-Guided Engineering of a Family IV Cold-Adapted Esterase Expands Its Substrate Range” (International Journal of Molecular Sciences, 2022)
# Tests used:
# Assay in all cases: purified protein
# Format in all cases: biochemical, Sutcliffiella cohnii
# Conditions in all cases: 50 mM Tris-HCl pH 8.0, 20 °C
# purified protein [1] = substrate: CCCCCC(=O)Oc1ccc([N+](=O)[O-])cc1
# purified protein [2] = substrate: CC(=O)Oc1ccc([N+](=O)[O-])cc1
# purified protein [3] = substrate: CCCC(=O)Oc1ccc([N+](=O)[O-])cc1
# purified protein [4] = substrate: CCCCCCCC(=O)Oc1ccc([N+](=O)[O-])cc1
protein,measurement,setting,value
"EstN7 (Sutcliffiella cohnii; W206A) (protein, recombinant, purified from E. coli BL21(DE3); dimer; catalytic triad S157, D254, H284) MKNRIDPELRAMLDMFPPLNLDDVQATRKAMEEAAQLTELPVDEEVVVSNRMVPGPEDNPYVRVRIYEPKEKIEKLPGLLWIHGGGYVLGAPEGDDLLCQRFVKEANCVVVSVDYRLAPEHPYPAPLEDCYAALQWFAKKVDELGVDASRIGVGGQSAGGGLTAALALLARDRKGPELCFQMPLYPMIDDKNNSPSSLEITGNLIANHDLNEKGWSMYLDGKNGTDDVPVHAAPARATDLTNLPYTYTCVGQLDPFRDETLDYVKRLCQAGVDVEFHLYPGAYHGFETLNPAAAVSQRALAEYVGAVKHVLNREKVVERK",Km,purified protein [1],1100 ± 70 µM
same,kcat,purified protein [1],3.8 ± 0.07 s⁻¹
same,kcat/Km,purified protein [1],3350 M⁻¹ s⁻¹
same,Km,purified protein [2],1300 ± 140 µM
same,kcat,purified protein [2],1.5 ± 0.07 s⁻¹
same,kcat/Km,purified protein [2],1190 M⁻¹ s⁻¹
same,Km,purified protein [3],1200 ± 550 µM
same,kcat,purified protein [3],8 ± 1 s⁻¹
same,kcat/Km,purified protein [3],6670 M⁻¹ s⁻¹
"EstN7 (Sutcliffiella cohnii; M187A/N211A) (protein, recombinant, purified from E. coli BL21(DE3); dimer; catalytic triad S157, D254, H284) MKNRIDPELRAMLDMFPPLNLDDVQATRKAMEEAAQLTELPVDEEVVVSNRMVPGPEDNPYVRVRIYEPKEKIEKLPGLLWIHGGGYVLGAPEGDDLLCQRFVKEANCVVVSVDYRLAPEHPYPAPLEDCYAALQWFAKKVDELGVDASRIGVGGQSAGGGLTAALALLARDRKGPELCFQMPLYPAIDDKNNSPSSLEITGNLIWNHDLAEKGWSMYLDGKNGTDDVPVHAAPARATDLTNLPYTYTCVGQLDPFRDETLDYVKRLCQAGVDVEFHLYPGAYHGFETLNPAAAVSQRALAEYVGAVKHVLNREKVVERK",Km,purified protein [1],1200 ± 10 µM
same,kcat,purified protein [1],24.5 ± 0.7 s⁻¹
same,kcat/Km,purified protein [1],20400 M⁻¹ s⁻¹
same,Km,purified protein [4],950 ± 20 µM
same,kcat,purified protein [4],0.45 ± 0.02 s⁻¹
same,kcat/Km,purified protein [4],473 M⁻¹ s⁻¹
same,Km,purified protein [2],1100 ± 70 µM
same,kcat,purified protein [2],361 ± 0.14 s⁻¹
same,kcat/Km,purified protein [2],328000 M⁻¹ s⁻¹
same,Km,purified protein [3],370 ± 80 µM
same,kcat,purified protein [3],17.6 ± 2.1 s⁻¹
same,kcat/Km,purified protein [3],46800 M⁻¹ s⁻¹
"EstN7 (Sutcliffiella cohnii) (protein, recombinant, purified from E. coli BL21(DE3); dimer; catalytic triad S157, D254, H284) MKNRIDPELRAMLDMFPPLNLDDVQATRKAMEEAAQLTELPVDEEVVVSNRMVPGPEDNPYVRVRIYEPKEKIEKLPGLLWIHGGGYVLGAPEGDDLLCQRFVKEANCVVVSVDYRLAPEHPYPAPLEDCYAALQWFAKKVDELGVDASRIGVGGQSAGGGLTAALALLARDRKGPELCFQMPLYPMIDDKNNSPSSLEITGNLIWNHDLNEKGWSMYLDGKNGTDDVPVHAAPARATDLTNLPYTYTCVGQLDPFRDETLDYVKRLCQAGVDVEFHLYPGAYHGFETLNPAAAVSQRALAEYVGAVKHVLNREKVVERK",Km,purified protein [2],50 ± 7 µM
same,kcat,purified protein [2],760 ± 3.5 s⁻¹
same,kcat/Km,purified protein [2],1.52e+07 M⁻¹ s⁻¹
same,Km,purified protein [3],57 ± 2 µM
same,kcat,purified protein [3],0.32 ± 0.005 s⁻¹
same,kcat/Km,purified protein [3],5610 M⁻¹ s⁻¹
"EstN7 (Sutcliffiella cohnii; N211A) (protein, recombinant, purified from E. coli BL21(DE3); dimer; catalytic triad S157, D254, H284) MKNRIDPELRAMLDMFPPLNLDDVQATRKAMEEAAQLTELPVDEEVVVSNRMVPGPEDNPYVRVRIYEPKEKIEKLPGLLWIHGGGYVLGAPEGDDLLCQRFVKEANCVVVSVDYRLAPEHPYPAPLEDCYAALQWFAKKVDELGVDASRIGVGGQSAGGGLTAALALLARDRKGPELCFQMPLYPMIDDKNNSPSSLEITGNLIWNHDLAEKGWSMYLDGKNGTDDVPVHAAPARATDLTNLPYTYTCVGQLDPFRDETLDYVKRLCQAGVDVEFHLYPGAYHGFETLNPAAAVSQRALAEYVGAVKHVLNREKVVERK",Km,purified protein [1],370 ± 50 µM
same,kcat,purified protein [1],2.3 ± 0.2 s⁻¹
same,kcat/Km,purified protein [1],6280 M⁻¹ s⁻¹
same,Km,purified protein [2],750 ± 1 µM
same,kcat,purified protein [2],280.5 ± 0.07 s⁻¹
same,kcat/Km,purified protein [2],374000 M⁻¹ s⁻¹
same,Km,purified protein [3],2000 ± 200 µM
same,kcat,purified protein [3],15 ± 0.5 s⁻¹
same,kcat/Km,purified protein [3],7500 M⁻¹ s⁻¹
